Laboratory results published in publication PMC2835468 (Matrix biology : journal of the International Society for …, 2009).

Tests used:
[1] = biological target: T1, ADAMTS4-1 (full-length human ADAMTS-4, C-terminal FLAG-tag) (human, UniProt O75173 213-837); experiment: enzyme inhibition kinetics
T1 sequence (looked up): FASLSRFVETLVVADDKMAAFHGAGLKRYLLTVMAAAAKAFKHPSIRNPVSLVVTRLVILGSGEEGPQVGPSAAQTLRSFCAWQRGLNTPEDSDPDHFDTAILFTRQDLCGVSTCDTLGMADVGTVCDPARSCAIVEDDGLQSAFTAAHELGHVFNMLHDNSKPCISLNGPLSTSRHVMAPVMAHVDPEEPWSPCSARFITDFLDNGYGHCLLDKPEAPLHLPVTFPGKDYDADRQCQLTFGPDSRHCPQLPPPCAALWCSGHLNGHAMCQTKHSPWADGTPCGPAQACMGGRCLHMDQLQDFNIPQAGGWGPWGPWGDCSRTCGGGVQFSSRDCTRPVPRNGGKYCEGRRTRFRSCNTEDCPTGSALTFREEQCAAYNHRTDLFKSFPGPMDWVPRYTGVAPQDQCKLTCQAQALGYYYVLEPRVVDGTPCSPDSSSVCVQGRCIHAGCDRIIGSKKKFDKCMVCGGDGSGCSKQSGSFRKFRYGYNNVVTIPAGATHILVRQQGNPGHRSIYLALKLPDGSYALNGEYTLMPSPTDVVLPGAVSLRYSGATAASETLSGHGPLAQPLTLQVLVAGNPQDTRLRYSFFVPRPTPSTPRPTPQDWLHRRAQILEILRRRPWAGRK

[2] = biological target: T2, ADAMTS4-4 (human ADAMTS-4 deletion mutant, C-terminal FLAG-tag) (human, UniProt O75173 213-519); experiment: enzyme inhibition kinetics
T2 sequence (looked up): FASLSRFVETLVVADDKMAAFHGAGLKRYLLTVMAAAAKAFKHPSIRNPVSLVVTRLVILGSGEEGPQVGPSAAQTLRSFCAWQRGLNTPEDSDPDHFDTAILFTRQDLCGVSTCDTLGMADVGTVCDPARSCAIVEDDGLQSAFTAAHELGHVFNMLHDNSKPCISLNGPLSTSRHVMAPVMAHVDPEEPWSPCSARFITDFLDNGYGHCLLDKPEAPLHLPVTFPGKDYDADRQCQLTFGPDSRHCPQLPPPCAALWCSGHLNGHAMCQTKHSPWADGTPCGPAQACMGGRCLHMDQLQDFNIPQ

Ki [1]: 0.39 nM | Ki [2]: 0.38 nM
B1: FLAG-tagged glycosylated human TIMP-3 (full-length tissue inhibitor of metalloproteinases 3), expressed in HEK293 (natural protein, UniProt P35625 24-211, looked up)
chain: CTCSPSHPQDAFCNSDIVIRAKVVGKKLVKEGPFGTLVYTIKQMKMYRGFTKMPHVQYIHTEASESLCGLKLEVNKYQYLLTGRVYDGKMYTGLCNFVERWDQLTLSQRKGLNYRYHLGCNCKIKSCYYLPCFVTSKNECLWTDMLSNFGYPGYQSKHYACIRQKGGYCSWYRGWAPPDKSIINATDP
modifications: glycosylated (only the 27 kDa glycosylated form remained after purification; single N-glycosylation site in the C-terminal domain)
